In test [1] the target is T1, mouse CLDN18.2 (mouse, UniProt P56857).
T1 chain: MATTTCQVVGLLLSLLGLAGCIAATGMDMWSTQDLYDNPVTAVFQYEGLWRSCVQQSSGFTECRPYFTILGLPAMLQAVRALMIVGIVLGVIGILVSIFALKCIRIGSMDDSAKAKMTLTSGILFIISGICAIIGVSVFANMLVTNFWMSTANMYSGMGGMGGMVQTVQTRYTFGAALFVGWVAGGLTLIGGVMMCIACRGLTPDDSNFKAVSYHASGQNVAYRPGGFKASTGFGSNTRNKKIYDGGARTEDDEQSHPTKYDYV
Briefly: ELISA. Background: In an ELISA, binding on a coated surface is turned into a signal by an enzyme label.

Test [2] concerns the target T2, human CLDN18.2 (human, UniProt P56856). In words: ELISA.
Test [3] deals with T2, human CLDN18.2. In words: ELISA. The source holds these as a separate data set.
Test [4] deals with T2, human CLDN18.2. In words: ELISA. The source holds these as a separate data set.
Test [5] has as its target T2, human CLDN18.2. Briefly: ELISA. The source holds these as a separate data set.
Test [6] concerns the target T2, human CLDN18.2. Briefly: ELISA. This is another data set of the same source.
Test [7] deals with T2, human CLDN18.2. In words: ELISA. This is another data set of the same source.
In test [8] the target is T2, human CLDN18.2. Briefly: ELISA. This is another data set of the same source.
For test [9], the target named is T2, human CLDN18.2. In words: ELISA. The source holds these as a separate data set.
For test [10], the target named is T2, human CLDN18.2. Briefly: ELISA. This is another data set of the same source.
Test [11] has as its target T2, human CLDN18.2. Briefly: ELISA. The source holds these as a separate data set.
The target in test [12] is T2, human CLDN18.2. Briefly: ELISA. The source holds these as a separate data set.
In test [13] the target is T3, human CLDN18.1 (human, UniProt P56856).
T3 chain: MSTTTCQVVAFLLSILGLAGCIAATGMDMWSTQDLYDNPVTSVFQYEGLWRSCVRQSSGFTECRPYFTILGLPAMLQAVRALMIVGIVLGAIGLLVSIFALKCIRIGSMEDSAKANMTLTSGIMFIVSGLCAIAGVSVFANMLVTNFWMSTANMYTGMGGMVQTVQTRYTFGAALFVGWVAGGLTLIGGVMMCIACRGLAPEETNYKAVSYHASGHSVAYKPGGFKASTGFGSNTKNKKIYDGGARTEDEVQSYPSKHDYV
In words: ELISA.

Test [14] deals with T2, human CLDN18.2. In words: KinExA.
Test [15] deals with T3, human CLDN18.1. Briefly: ELISA.
For test [16], the target named is T2, human CLDN18.2. In words: ELISA, serum 0 h.
Test [17] addresses T2, human CLDN18.2. Briefly: ELISA, serum 24 h.
Test [18] has as its target T2, human CLDN18.2. In words: ELISA, serum 72 h.
For test [19], the target named is T1, mouse CLDN18.2. In words: ELISA.

Values joined by “and” are separate entries in the source; they are usually repeats but may differ in a detail not shown here. Identical values can stand only once. Like-named read-outs stand apart in the source and are kept apart here.

The EC50 is the concentration that produces a half-maximal response. A higher EC50 goes with lower potency in that assay. One may read the Kd as a measure of binding affinity in units of concentration. High values mean a looser complex, low ones a tighter complex.

B1: Ab10 (antibody)
chain 1: QVQLVQSGAEVKKPGSSVKVSCKASGYAFSNYLIEWVKQAPGQGLEWIGLINPGSGGTNYNEKFKGKATITADKSTSTAYMELSSLRSEDTAVYYCARVYYGNSFAYWGQGTLVTVSS
chain 2: DIVMTQSPDSLAVSLGERATISCKSSQSLLNSGNQKNYLTWYQQKPGQPPKLLIYWASTRESGVPDRFSGSGSGTDFTLTISSLQAEDVAVYYCQNDYFYPFTFGQGTKLEIK
For the molecule B1, the EC50 is 371 pM with mouse CLDN18.2 [1]; 510 pM with human CLDN18.2 [2]; 117 pM in the test with human CLDN18.2 [3]; 164 pM with human CLDN18.2 [4]; 151 pM with human CLDN18.2 [5]; 208 pM with human CLDN18.2 [6]. Also, the EC50 with human CLDN18.2 [7] was 157 pM; with human CLDN18.2 [8], 360 pM and 690 pM; in the test with human CLDN18.2 [9], 380 pM; in the test with human CLDN18.2 [10], 690 pM; in the test with human CLDN18.2 [11] it was 420 pM; in the test with human CLDN18.2 [12] it was 200 pM. Further, the binding result in the test with human CLDN18.1 [13] is “no binding”. The molecule also gave a Kd with human CLDN18.2 [14] of 13.3 pM.

B2: Ab6 (antibody, V domains shown)
VH: QVQLVQSGAEVKKPGSSVKVSCKASGYAFSNYLIEWVKQAPGQGLEWIGLINPGSGGTNYNEKFKGKATITADKSTSTAYMELSSLRSEDTAVYYCARVYYGNSFAYWGQGTLVTVSS
VL: DIVMTQSPDSLAVSLGERATISCKSSQSLLNSGNNKNYLAWYQQKPGQPPKLLIYWASTRESGVPDRFSGSGSGTDFTLTISSLQAEDVAVYYCQNDYFYPFTFGQGTKLEIK
For the molecule B2, the figures for the EC50 with mouse CLDN18.2 [1], with human CLDN18.2 [6] and with human CLDN18.2 [12] were 594 pM, 220 pM and 222 pM, respectively. Besides, the binding result with human CLDN18.1 [15] is given as “no binding”.

B3: LB155 CLDN18.2 arm (antibody)
chain 1: QVQLVQSGAEVKKPGSSVKVSCKASGYAFSNYLIEWVKQAPGQGLEWIGLINPGSGGTNYNEKFKGKATITADKSTSTAYMELSSLRSEDTAVYYCARVYYGNSFAYWGQGTLVTVSS
chain 2: DIVMTQSPDSLAVSLGERATISCKSSQSLLNSGNQKNYLTWYQQKPGQPPKLLIYWASTRESGVPDRFSGSGSGTDFTLTISSLQAEDVAVYYCQNDYFYPFTFGQGTKLEIK
In the test with human CLDN18.2 [8], B3 yielded an EC50 of 590 pM.

B4: ADC2 (antibody)
chain 1: QVQLVQSGAEVKKPGSSVKVSCKASGYAFSNYLIEWVKQAPGQGLEWIGLINPGSGGTNYNEKFKGKATITADKSTSTAYMELSSLRSEDTAVYYCARVYYGNSFAYWGQGTLVTVSS
chain 2: DIVMTQSPDSLAVSLGERATISCKSSQSLLNSGNQKNYLTWYQQKPGQPPKLLIYWASTRESGVPDRFSGSGSGTDFTLTISSLQAEDVAVYYCQNDYFYPFTFGQGTKLEIK
modifications: Ab10 MC-VC-PAB-MMAF conjugate
B4: it took 310 pM to reach a half-maximal effect in the test with human CLDN18.2 [4] (EC50).

B5: Ab36 (antibody, V domains shown)
VH: QVQLVQSGAEVKKPGSSVKVSCKASGYAFSNYLIEWVKQAPGQGLEWIGLINPGSGGTNYNEKFKGKATITADKSTSTAYMELSSLRSEDTAVYYCARVYYGNTFAYWGQGTLVTVSS
VL: DIVMTQSPDSLAVSLGERATISCKSSQSLLNTGNNKNYLAWYQQKPGQPPKLLIYWASTRESGVPDRFSGSGSGTDFTLTISSLQAEDVAVYYCQNDYFYPFTFGQGTKLEIK
With B5, the EC50 came to 518 pM with mouse CLDN18.2 [1] and 211 pM with human CLDN18.2 [6].

B6: LB195 CLDN18.2 arm (antibody)
chain 1: QVQLVQSGAEVKKPGSSVKVSCKASGYAFSNYLIEWVKQAPGQGLEWIGLINPGSGGTNYNEKFKGKATITADKSTSTAYMELSSLRSEDTAVYYCARVYYGNSFAYWGQGTLVTVSS
chain 2: DIVMTQSPDSLAVSLGERATISCKSSQSLLNSGNQKNYLTWYQQKPGQPPKLLIYWASTRESGVPDRFSGSGSGTDFTLTISSLQAEDVAVYYCQNDYFYPFTFGQGTKLEIK
With B6, a half-maximal effect with human CLDN18.2 [8] (EC50) was put at 500 pM.

B7: Ab7 (antibody, V domains shown)
VH: QVQLVQSGAEVKKPGSSVKVSCKASGYAFSNYLIEWVKQAPGQGLEWIGLINPGSGGTNYNEKFKGKATITADKSTSTAYMELSSLRSEDTAVYYCARVYYGNSFAYWGQGTLVTVSS
VL: DIVMTQSPDSLAVSLGERATISCKSSQSLLNSGNQKNYLTWYQQKPGQPPKLLIYWASTRESGVPDRFSGSGSGTHFTLTISSLQAEDVAVYYCQNDYFYPFTFGQGTKLEIKR
In the case of B7, the EC50 with human CLDN18.2 [3] turned out to be 282 pM. In addition, the binding result with human CLDN18.1 [13] is recorded as “no binding”.

B8: Ab9 (antibody, V domains shown)
VH: QVQLVQSGAEVKKPGSSVKVSCKASGYAFSNYLIEWVKQAPGQGLEWIGLINPGSGGTNYNEKFKGKATLTADKSTSTAYMELSSLRSEDTAVYFCARVYYGNSFAYWGQGTLVTVSS
VL: DIVMTQSPDSLAVSLGERATISCKSSQSLLNSGNQKNYLTWYQQKPGQPPKLLIYWASTRESGVPDRFSGSGSGTHFTLTISSLQAEDVAVYYCQNDYFYPFTFGQGTKLEIKR
B8 had an EC50 in the test with human CLDN18.2 [3] of 339 pM. The binding result in the test with human CLDN18.1 [13] was “no binding”.

B9: LB432 CLDN18.2 arm (antibody)
chain 1: QVQLVQSGAEVKKPGSSVKVSCKASGYAFSNYLIEWVKQAPGQGLEWIGLINPGSGGTNYNEKFKGKATITADKSTSTAYMELSSLRSEDTAVYYCARVYYGNSFAYWGQGTLVTVSS
chain 2: DIVMTQSPDSLAVSLGERATISCKSSQSLLNSGNQKNYLTWYQQKPGQPPKLLIYWASTRESGVPDRFSGSGSGTDFTLTISSLQAEDVAVYYCQNDYFYPFTFGQGTKLEIK
With B9, the EC50 with human CLDN18.2 [9] turned out to be 740 pM; with human CLDN18.2 [16], 357 pM; in the test with human CLDN18.2 [17] it was 535 pM; with human CLDN18.2 [18], 1200 pM.

B10: Ab8 (antibody, V domains shown)
VH: QVQLVQSGAEVKKPGSSVKVSCKASGYAFSNYLIEWVKQAPGQGLEWIGLINPGSGGTNYNEKFKGKATLTADKSTSTAYMELSSLRSEDTAVYFCARVYYGNSFAYWGQGTLVTVSS
VL: DIVMTQSPDSLAVSLGERATISCKSSQSLLNSGNQKNYLTWYQQKPGQPPKLLIYWASTRESGVPDRFSGSGSGTDFTLTISSLQAEDVAVYYCQNDYFYPFTFGQGTKLEIKR
B10 had an EC50 with human CLDN18.2 [3] of 227 pM. For the same molecule, in the test with human CLDN18.1 [13], the binding result is given as “no binding”.

B11: Ab35 (antibody, V domains shown)
VH: QVQLVQSGAEVKKPGSSVKVSCKASGYAFSNYLIEWVKQAPGQGLEWIGLINPGSGGTNYNEKFKGKATITADKSTSTAYMELSSLRSEDTAVYYCARVYYGNTFAYWGQGTLVTVSS
VL: DIVMTQSPDSLAVSLGERATISCKSSQSLLNTGNQKNYLTWYQQKPGQPPKLLIYWASTRESGVPDRFSGSGSGTDFTLTISSLQAEDVAVYYCQNDYFYPFTFGQGTKLEIK
For the molecule B11, in the test with human CLDN18.2 [6], the EC50 was 62100 pM. The binding result in the test with mouse CLDN18.2 [19] is recorded as “no binding”.

B12: Ab15 (antibody, V domains shown)
VH: QVQLVQSGAEVKKPGSSVKVSCKASGYAFSNYLIEWVKQAPGQGLEWIGLINPGSGGTNYNEKFKGKATITADKSTSTAYMELSSLRSEDTAVYYCARVYYGNSFAYWGQGTLVTVSS
VL: DIVMTQSPDSLAVSLGERATINCKSSQSLLNSGNNKNYLAWYQQKPGQPPKLLIYWASTRESGVPDRFSGSGSGTDFTLTISSLQAEDVAVYYCQNDYFYPFTFGQGTKLEIKR
For B12, in the test with human CLDN18.1 [15], the binding result is on record as “no binding”. In the test with human CLDN18.2 [12], the EC50 amounted to 219 pM.

B13: ADC1 (antibody)
chain 1: QVQLVQSGAEVKKPGSSVKVSCKASGYAFSNYLIEWVKQAPGQGLEWIGLINPGSGGTNYNEKFKGKATITADKSTSTAYMELSSLRSEDTAVYYCARVYYGNSFAYWGQGTLVTVSS
chain 2: DIVMTQSPDSLAVSLGERATISCKSSQSLLNSGNQKNYLTWYQQKPGQPPKLLIYWASTRESGVPDRFSGSGSGTDFTLTISSLQAEDVAVYYCQNDYFYPFTFGQGTKLEIK
modifications: Ab10 SMCC-DM1 conjugate
In the case of B13, the EC50 with human CLDN18.2 [4] came out at 344 pM.

The record behind these values is US11912763 (dated 2024).
